Assay [1] addresses T1, human CD147 protein (adsorbed to ELISA plates) (human, UniProt P35613-2 22-205, limits assumed).
T1 construct: also called human CD147 polypeptide; Basigin
T1 sequence (looked up): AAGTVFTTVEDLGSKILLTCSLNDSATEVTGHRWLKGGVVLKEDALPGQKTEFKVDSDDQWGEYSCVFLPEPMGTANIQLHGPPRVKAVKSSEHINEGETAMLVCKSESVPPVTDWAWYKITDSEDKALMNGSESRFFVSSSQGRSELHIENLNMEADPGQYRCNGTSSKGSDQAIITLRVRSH
Description: ELISA, human CD147 protein adsorbed to plate, intact activatable antibody; apparent KD. The protocol:
Humanized anti-human CD147 antibodies of the present disclosure hu 3A11 Hc1/Lc1 (VL of SEQ ID NO: 5 and VH of SEQ ID NO: 1) were used as a control.
Using a standard ELISA protocol, human CD147 protein was absorbed to ELISA plates and subsequently incubated with the indicated concentration of antibody of the present disclosure. Bound humanized activatable antibody of the present disclosure was detected with anti-human Fab-peroxidase secondary antibody and Ultra TMB detection (Thermo Fisher Scientific).
(ELISA stands for enzyme-linked immunosorbent assay.)

Assay [2] concerns the target T1, human CD147 protein (adsorbed to ELISA …). Described as above. The protocol:
For the exemplary assay depicted in FIGS. 7A-7C, standard ELISA protocol was used, in which human CD147 protein was absorbed to ELISA plates and subsequently incubated with the indicated concentration of antibody of the present disclosure. Bound humanized activatable antibody of the present disclosure was detected with anti-human Fab-peroxidase secondary antibody and Ultra TMB detection (Thermo Fisher Scientific).
This is another data set of the same source.

Read-outs that look alike come from different tables or passages of the source.

B1: anti-human CD147 activatable antibody hu 3A11 Hc1/Lc1-217-3001 (antibody)
VH: EVQLVESGGGLVQPGGSLRLSCAASGFTFSNYWMDWVRQAPGKGLEWVGEIRLKSYNYATHYAASVKGRFTISRDDSKNSVYLQMNSLKTEDTAVYYCTAAGTDYWGQGTLVTVSS
VL: QSLFCSGFRCDQYASGGGSSGGSAVGLLAPPGGLSGRSDNHGGSDIQMTQSPSSLSASVGDRVTITCRASQSVRTDVGWYQQKPGKAPKLLIYYSSNRYTGVPSRFSGSGSGTDFTLTISSLQPEDFATYYCQQDYSSPYTFGQGTKLEIK
notes: also called hu 3A11-217-3001
On to B1, for which the Kd in assay [1] came out at 1.61 nM.

B2: anti-human CD147 activatable antibody hu 3A11 Hc1/Lc1-440-3001 (antibody)
VH: EVQLVESGGGLVQPGGSLRLSCAASGFTFSNYWMDWVRQAPGKGLEWVGEIRLKSYNYATHYAASVKGRFTISRDDSKNSVYLQMNSLKTEDTAVYYCTAAGTDYWGQGTLVTVSS
VL: TCLHLTRFNYLSCNKGGGSSGGSAVGLLAPPGGLSGRSDNHGGSDIQMTQSPSSLSASVGDRVTITCRASQSVRTDVGWYQQKPGKAPKLLIYYSSNRYTGVPSRFSGSGSGTDFTLTISSLQPEDFATYYCQQDYSSPYTFGQGTKLEIK
notes: also called hu 3A11-440-3001
As for B2, in assay [1], the Kd was 1.23 nM.

B3: anti-human CD147 activatable antibody hu 3A11 Hc1/Lc1-216-3001 (antibody)
VH: EVQLVESGGGLVQPGGSLRLSCAASGFTFSNYWMDWVRQAPGKGLEWVGEIRLKSYNYATHYAASVKGRFTISRDDSKNSVYLQMNSLKTEDTAVYYCTAAGTDYWGQGTLVTVSS
VL: HGPCHYNFNSGCAQFGGGSSGGSAVGLLAPPGGLSGRSDNHGGSDIQMTQSPSSLSASVGDRVTITCRASQSVRTDVGWYQQKPGKAPKLLIYYSSNRYTGVPSRFSGSGSGTDFTLTISSLQPEDFATYYCQQDYSSPYTFGQGTKLEIK
notes: also called hu 3A11-216-3001
As to B3, the Kd in assay [1] amounted to 0.89 nM.

B4: anti-human CD147 activatable antibody hu 3A11 Hc1/Lc1-414.1-3001 (antibody, V domains shown)
VH: EVQLVESGGGLVQPGGSLRLSCAASGFTFSNYWMDWVRQAPGKGLEWVGEIRLKSYNYATHYAASVKGRFTISRDDSKNSVYLQMNSLKTEDTAVYYCTAAGTDYWGQGTLVTVSS
VL: THGPCHFKPNCGGGSSGGSAVGLLAPPGGLSGRSDNHGGSDIQMTQSPSSLSASVGDRVTITCRASQSVRTDVGWYQQKPGKAPKLLIYYSSNRYTGVPSRFSGSGSGTDFTLTISSLQPEDFATYYCQQDYSSPYTFGQGTKLEIK
notes: also called hu 3A11-414.1-3001
For the molecule B4, the Kd in assay [2] is 13.8 nM.

B5: anti-human CD147 activatable antibody hu 3A11 Hc1/Lc1-419-3001 (antibody)
VH: EVQLVESGGGLVQPGGSLRLSCAASGFTFSNYWMDWVRQAPGKGLEWVGEIRLKSYNYATHYAASVKGRFTISRDDSKNSVYLQMNSLKTEDTAVYYCTAAGTDYWGQGTLVTVSS
VL: LHGPCHYDLKCKNNTGGGSSGGSAVGLLAPPGGLSGRSDNHGGSDIQMTQSPSSLSASVGDRVTITCRASQSVRTDVGWYQQKPGKAPKLLIYYSSNRYTGVPSRFSGSGSGTDFTLTISSLQPEDFATYYCQQDYSSPYTFGQGTKLEIK
notes: also called hu 3A11-419-3001
B5: in assay [1], the Kd was 9.43 nM.

B6: anti-human CD147 activatable antibody hu 3A11 Hc1/Lc1-416-3001 (antibody)
VH: EVQLVESGGGLVQPGGSLRLSCAASGFTFSNYWMDWVRQAPGKGLEWVGEIRLKSYNYATHYAASVKGRFTISRDDSKNSVYLQMNSLKTEDTAVYYCTAAGTDYWGQGTLVTVSS
VL: WQRECSQKNICQYYIGGGSSGGSAVGLLAPPGGLSGRSDNHGGSDIQMTQSPSSLSASVGDRVTITCRASQSVRTDVGWYQQKPGKAPKLLIYYSSNRYTGVPSRFSGSGSGTDFTLTISSLQPEDFATYYCQQDYSSPYTFGQGTKLEIK
notes: also called hu 3A11-416-3001
With B6, in assay [1], the Kd was 0.49 nM.

B7: anti-human CD147 activatable antibody hu 3A11 Hc1/Lc1-215-3001 (antibody)
VH: EVQLVESGGGLVQPGGSLRLSCAASGFTFSNYWMDWVRQAPGKGLEWVGEIRLKSYNYATHYAASVKGRFTISRDDSKNSVYLQMNSLKTEDTAVYYCTAAGTDYWGQGTLVTVSS
VL: RYQSCHSYWCTEGNHGGGSSGGSAVGLLAPPGGLSGRSDNHGGSDIQMTQSPSSLSASVGDRVTITCRASQSVRTDVGWYQQKPGKAPKLLIYYSSNRYTGVPSRFSGSGSGTDFTLTISSLQPEDFATYYCQQDYSSPYTFGQGTKLEIK
notes: also called hu 3A11-215-3001
Regarding B7, the Kd in assay [1] was 5.53 nM.

B8: anti-human CD147 activatable antibody hu 3A11 Hc1/Lc1-419.1-3001 (antibody)
VH: EVQLVESGGGLVQPGGSLRLSCAASGFTFSNYWMDWVRQAPGKGLEWVGEIRLKSYNYATHYAASVKGRFTISRDDSKNSVYLQMNSLKTEDTAVYYCTAAGTDYWGQGTLVTVSS
VL: LHGPCHYDLKCKQNTGGGSSGGSAVGLLAPPGGLSGRSDNHGGSDIQMTQSPSSLSASVGDRVTITCRASQSVRTDVGWYQQKPGKAPKLLIYYSSNRYTGVPSRFSGSGSGTDFTLTISSLQPEDFATYYCQQDYSSPYTFGQGTKLEIK
notes: also called hu 3A11-419.1-3001
As to B8, the Kd in assay [2] is 44 nM.

B9: anti-human CD147 activatable antibody hu 3A11 Hc1/Lc1-428-3001 (antibody)
VH: EVQLVESGGGLVQPGGSLRLSCAASGFTFSNYWMDWVRQAPGKGLEWVGEIRLKSYNYATHYAASVKGRFTISRDDSKNSVYLQMNSLKTEDTAVYYCTAAGTDYWGQGTLVTVSS
VL: WHGPCHYTKCDDHTMGGGSSGGSAVGLLAPPGGLSGRSDNHGGSDIQMTQSPSSLSASVGDRVTITCRASQSVRTDVGWYQQKPGKAPKLLIYYSSNRYTGVPSRFSGSGSGTDFTLTISSLQPEDFATYYCQQDYSSPYTFGQGTKLEIK
notes: also called hu 3A11-428-3001
Take B9: the Kd in assay [1] was 7.63 nM.

B10: anti-human CD147 activatable antibody hu 3A11 Hc1/Lc1-253-3001 (antibody)
VH: EVQLVESGGGLVQPGGSLRLSCAASGFTFSNYWMDWVRQAPGKGLEWVGEIRLKSYNYATHYAASVKGRFTISRDDSKNSVYLQMNSLKTEDTAVYYCTAAGTDYWGQGTLVTVSS
VL: VHGPCHWSVECLSNVGGGSSGGSAVGLLAPPGGLSGRSDNHGGSDIQMTQSPSSLSASVGDRVTITCRASQSVRTDVGWYQQKPGKAPKLLIYYSSNRYTGVPSRFSGSGSGTDFTLTISSLQPEDFATYYCQQDYSSPYTFGQGTKLEIK
notes: also called hu 3A11-253-3001
Consider B10, for which the Kd in assay [1] stood at 0.87 nM.

B11: anti-human CD147 activatable antibody hu 3A11 Hc1/Lc1-445-3001 (antibody)
VH: EVQLVESGGGLVQPGGSLRLSCAASGFTFSNYWMDWVRQAPGKGLEWVGEIRLKSYNYATHYAASVKGRFTISRDDSKNSVYLQMNSLKTEDTAVYYCTAAGTDYWGQGTLVTVSS
VL: SHGPCHFDYQCINNTGGGSSGGSAVGLLAPPGGLSGRSDNHGGSDIQMTQSPSSLSASVGDRVTITCRASQSVRTDVGWYQQKPGKAPKLLIYYSSNRYTGVPSRFSGSGSGTDFTLTISSLQPEDFATYYCQQDYSSPYTFGQGTKLEIK
notes: also called hu 3A11-445-3001
For the molecule B11, the Kd in assay [1] worked out at 7.86 nM.

B12: anti-human CD147 activatable antibody hu 3A11 Hc1/Lc1-414.3-3001 (antibody)
VH: EVQLVESGGGLVQPGGSLRLSCAASGFTFSNYWMDWVRQAPGKGLEWVGEIRLKSYNYATHYAASVKGRFTISRDDSKNSVYLQMNSLKTEDTAVYYCTAAGTDYWGQGTLVTVSS
VL: THGPCHFKPNCAYPTGGGSSGGSAVGLLAPPGGLSGRSDNHGGSDIQMTQSPSSLSASVGDRVTITCRASQSVRTDVGWYQQKPGKAPKLLIYYSSNRYTGVPSRFSGSGSGTDFTLTISSLQPEDFATYYCQQDYSSPYTFGQGTKLEIK
notes: also called hu 3A11-414.3-3001
In the case of B12, in assay [2], the Kd is 20.2 nM.

B13: anti-human CD147 activatable antibody hu 3A11 Hc1/Lc1-422-3001 (antibody)
VH: EVQLVESGGGLVQPGGSLRLSCAASGFTFSNYWMDWVRQAPGKGLEWVGEIRLKSYNYATHYAASVKGRFTISRDDSKNSVYLQMNSLKTEDTAVYYCTAAGTDYWGQGTLVTVSS
VL: LHGPCHYMNTCHNVKGGGSSGGSAVGLLAPPGGLSGRSDNHGGSDIQMTQSPSSLSASVGDRVTITCRASQSVRTDVGWYQQKPGKAPKLLIYYSSNRYTGVPSRFSGSGSGTDFTLTISSLQPEDFATYYCQQDYSSPYTFGQGTKLEIK
notes: also called hu 3A11-422-3001
As to B13, the Kd in assay [1] is 1.55 nM.

B14: anti-human CD147 activatable antibody hu 3A11 Hc1/Lc1-221-3001 (antibody)
VH: EVQLVESGGGLVQPGGSLRLSCAASGFTFSNYWMDWVRQAPGKGLEWVGEIRLKSYNYATHYAASVKGRFTISRDDSKNSVYLQMNSLKTEDTAVYYCTAAGTDYWGQGTLVTVSS
VL: DHGPCHYVSCTTINHGGGSSGGSAVGLLAPPGGLSGRSDNHGGSDIQMTQSPSSLSASVGDRVTITCRASQSVRTDVGWYQQKPGKAPKLLIYYSSNRYTGVPSRFSGSGSGTDFTLTISSLQPEDFATYYCQQDYSSPYTFGQGTKLEIK
notes: also called hu 3A11-221-3001
As for B14, in assay [1], the Kd was 2.5 nM.

B15: anti-human CD147 activatable antibody hu 3A11 Hc1/Lc1-443-3001 (antibody)
VH: EVQLVESGGGLVQPGGSLRLSCAASGFTFSNYWMDWVRQAPGKGLEWVGEIRLKSYNYATHYAASVKGRFTISRDDSKNSVYLQMNSLKTEDTAVYYCTAAGTDYWGQGTLVTVSS
VL: AHGPCHYNTECNSNKGGGSSGGSAVGLLAPPGGLSGRSDNHGGSDIQMTQSPSSLSASVGDRVTITCRASQSVRTDVGWYQQKPGKAPKLLIYYSSNRYTGVPSRFSGSGSGTDFTLTISSLQPEDFATYYCQQDYSSPYTFGQGTKLEIK
notes: also called hu 3A11-443-3001
With B15, the Kd in assay [1] was 7.4 nM.

B16: anti-human CD147 activatable antibody hu 3A11 Hc1/Lc1-414.2-3001 (antibody)
VH: EVQLVESGGGLVQPGGSLRLSCAASGFTFSNYWMDWVRQAPGKGLEWVGEIRLKSYNYATHYAASVKGRFTISRDDSKNSVYLQMNSLKTEDTAVYYCTAAGTDYWGQGTLVTVSS
VL: THGPCHFKPQCSYPTGGGSSGGSAVGLLAPPGGLSGRSDNHGGSDIQMTQSPSSLSASVGDRVTITCRASQSVRTDVGWYQQKPGKAPKLLIYYSSNRYTGVPSRFSGSGSGTDFTLTISSLQPEDFATYYCQQDYSSPYTFGQGTKLEIK
notes: also called hu 3A11-414.2-3001
With B16, the Kd in assay [2] was 15.7 nM.

B17: anti-human CD147 activatable antibody hu 3A11 Hc1/Lc1-415-3001 (antibody)
VH: EVQLVESGGGLVQPGGSLRLSCAASGFTFSNYWMDWVRQAPGKGLEWVGEIRLKSYNYATHYAASVKGRFTISRDDSKNSVYLQMNSLKTEDTAVYYCTAAGTDYWGQGTLVTVSS
VL: LHGPCHFNNCNTLKLGGGSSGGSAVGLLAPPGGLSGRSDNHGGSDIQMTQSPSSLSASVGDRVTITCRASQSVRTDVGWYQQKPGKAPKLLIYYSSNRYTGVPSRFSGSGSGTDFTLTISSLQPEDFATYYCQQDYSSPYTFGQGTKLEIK
notes: also called hu 3A11-415-3001
With B17, the Kd in assay [1] was 4.72 nM.

The values are drawn from patent US20180303952A1 (CYTOMX THERAPEUTICS, published 2018).
